{
  "source": "the nanobody polyreactivity screen of Harvey et al. (2022)",
  "data": [
    {"assay": "yeast display, Sf9 membrane polyspecificity reagent, FACS + sequencing; frameworks hold sequencing errors", "summary_of_the_method": "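Using colony PCR, genes from sorted yeast display clones were amplified, then sequenced on MiSeq at 2 × 250 and filtered by CDR length. The clones had been stained with 10% biotinylated, detergent-solubilized Sf9 membrane reagent for 1 hour at 4 °C and sorted by FACS into low and high (top ~1%) gates on anti-HA and streptavidin fluorescence. Polyreactivity labels come from the gate of origin.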", "values": [
      {"sequence": "QLQLVESGGGLVQAGGSLRLSCAASGSIFFNYTMGWYRQAPGNERELVAAINSSGGRTNYADSVKGRFTISRDNAKNTVYLQMNSLKPEDTAVYYCAAGQSRYRELEYWGQGTQVTVSS", "polyreactivity (PSR sort gate)": "low polyreactivity"},
      {"sequence": "QLQLVESGGGLVQAGGSLRLSCAASGSIFNRYAMGSYRQAPGKERELVAAITRSAARTYYADSVKGRFTISRDNAKTTVYLQMNRLKPEDTAVYYCKAATTPYGYSYYYLGQGTQVTVSS", "polyreactivity (PSR sort gate)": "high polyreactivity"},
      {"sequence": "QLQLVESGGGLVQAGGSLRLSCAASGSIFRTNVMGWYRQAPGKERELVAAISRRGGSTYYADSVKGRFTISRDNAKNTVYLQMISLKPEDTAVYYCAASSSAYRDDYWGQGTQVTVSS", "polyreactivity (PSR sort gate)": "high polyreactivity"},
      {"sequence": "QLQLVESGGGLVQAGGSLRLSCAASGSIFVTYAMGWYSQAPGKEMELVAAINYSGGSTYYADSVTGRFTISRDNAKNTVYLQMNSLKPEATAVYYCAAAVAVFSFDYPHYYEYEYWGQGTQVTVSS", "polyreactivity (PSR sort gate)": "low polyreactivity"},
      {"sequence": "QLQLVESGGGLVQAGGSLRLSCAASGSIFYPYAMGWYRQAPGKERELVATINEDGGSTYYADSVKGRFTISRDNAKNTVYLQMNSLKQEDTAVYYCNTDHFEDYHTDFWSDYEYWGHGTQVTVSS", "polyreactivity (PSR sort gate)": "low polyreactivity"},
      {"sequence": "QLQLVESGGGLVQAGGSLRLSCAASGSISAVNTMGWYRQAPRKERELVATISYSTASTYYADSVKGRFTISRDNAKITVYLQINSRKPEDTAFYYCNKDGRRYAYNSEYDHWGQGTQVTVSS", "polyreactivity (PSR sort gate)": "low polyreactivity"},
      {"sequence": "QLQLVESGGGLVQAGGSLRLSCAASGSTFPEYVMGWYRQAPAKERELVAAITRRGGRTYYADSVKGRFTISRDNAKNTVYFQMNSLKPEDTAVYYCAAKSAVVVGMDSWGQGTQVTVSS", "polyreactivity (PSR sort gate)": "high polyreactivity"},
      {"sequence": "QLQLVESGGGLVQAGGSLRLSCAASGSTFVYNAMGWYRQAPGKERELVAAISTGGSTYYADSVKGRFTISRDNAKNTVYLQMNSLKPEDTAVYYCAAGYSWGYSSQKLRYGYWGQGTQVTVSS", "polyreactivity (PSR sort gate)": "high polyreactivity"},
      {"sequence": "QLQLVESGGGLVQAGGSLRLSCAASGSTFVYYAMGWYRPAPGKERELVAGITSSGGSTYYADSVKGRFTISRDNAKNTVYLQMNSLKPEDTAVYYCAAYVWVQQGRYYYWGQGTQVTVSS", "polyreactivity (PSR sort gate)": "low polyreactivity"},
      {"sequence": "QLQLVESGGGLVQAGGSLRLSCAASGSTFYAYAMGWYRQAPGKERELVARIRWRGGRTYYADSVKGRFTISRDNAKNTVYLRMNSLKPEDTAVYYCAADLSRAGGGYWGQGTQVTVSS", "polyreactivity (PSR sort gate)": "high polyreactivity"},
      {"sequence": "QLQLVESGGGLVQAGGSLRLSCAASGSTFYLYDLGWYIQAPGKESELVAAITSSGGSTYYADSVKGRFTISLDNAKNTVYLQMTSLKPEDTAVYYCAARYRGWVYSYDYWGQGTQVTVSS", "polyreactivity (PSR sort gate)": "low polyreactivity"},
      {"sequence": "QLQLVESGGGLVQAGGSLRLSCAPSGSIFYYSAMGWSRQAPGKESEFVAAITRNGGSTYYADSVKGRFTISRDNAKNTVYLQMNSLKPVATAVFYCNAVRVRVTSHRIRQLDYGYWGQGTQVTVSS", "polyreactivity (PSR sort gate)": "low polyreactivity"},
      {"sequence": "QLQLVESGGGLVQAGGSLRLSCGASGFTFYVYAMGWSRQAPGKERELVAAISKSGGSTYYADSVKGRFTISRDHATNTVDLQMTSLKPEDTAVYSCAVFDNRSGYRGGHRYNSWGQATQVTVSS", "polyreactivity (PSR sort gate)": "high polyreactivity"},
      {"sequence": "QLQLVESGGGLVQAGGSLRLSSAASGFIFDGNAMGGYRQAPGKERELVAAISWDGGTYYADSVKGRFTISRDNAKNTVYLQMNSLKPEDTAVDYCPAEQTQLYSFGWDEYWGQGTQVTVSS", "polyreactivity (PSR sort gate)": "low polyreactivity"},
      {"sequence": "QLQLVESGGGLVQAGGSLRLSSAASGITFRGYTMGWYRPAPGKERELVARIRSSDGSTYYADSVKGRFTISRDNAKNTVYLQMNSLKPEDTAVYYCNDDRRGRALKYYSWGQGTQVTVSS", "polyreactivity (PSR sort gate)": "low polyreactivity"},
      {"sequence": "QLQLVESGGGLVQAGGSLSLSCAASGSTFDYYDMGWYRQAPGKERELFSYISWSGGSTRYADSVKGRYTISRDNAKNTVYLQMNSLKPEESAVYYCNKSNPDYDRLAIHAFDYWGQGTQLTVSS", "polyreactivity (PSR sort gate)": "low polyreactivity"},
      {"sequence": "QLQLVESGGGLVQAGVSLRLSCASSGRIFALYAMGLYSQAPGKERELVAAITWRGGRTRYADSVKGRFTFSRDNAKYTVYLQMNSLKPEDTAVYYCAKEYVKYQWDYGYFGQGTQVTVSS", "polyreactivity (PSR sort gate)": "high polyreactivity"},
      {"sequence": "QLQLVESGGRLVQAGGSLRLSCAATGFTFGGYAMGWYRQAPGKESELVARIRRSGGSTYYADSVKGRFTISRDNAKNTVYLQMTSLKPEDTAVYYCAAGYSRGQYRYNYWGQGTQVTVSS", "polyreactivity (PSR sort gate)": "high polyreactivity"},
      {"sequence": "QLQLVESGGVIVQAGGSLRLSCAASGITIYYNAMGGYRHAPGQVRELVAAITRSGGSPNYADSVKGRFTISRDNAKNNVYLQMKSLKPEDTAVYSCAKGHLYAGHRHYAYGYWGQGTQVTVSS", "polyreactivity (PSR sort gate)": "low polyreactivity"},
      {"sequence": "QLQLVESGRGLVQAGGSLRLRCAASVSTFGANAMGWYRQAPGKESELVATISSGGRTYYADSVKGRFTISRDNAKNTVYLQMNSLKPEDTAVYYCNAGADYTYVYISVYVLYDEWGQGTQVTVSS", "polyreactivity (PSR sort gate)": "low polyreactivity"},
      {"sequence": "QLQLVESGRGLVQAGGSLRLSCAASGFTFRTYAKGWYRQAPGKERELVAAITVSGGTYYADSVKGRFTISRDNAKNTVYLQMNSLKPEDTAVYYCTAKRFRTGFDYWGQGTQVTVSS", "polyreactivity (PSR sort gate)": "low polyreactivity"},
      {"sequence": "QLQLVESGRGLVQAGGSLRLSCAASGRTFYFYGMGWYRQAPGKERELVASITRGTSTTYADSVKGRFTISRDNAKNTVYFQMNSLKPEDTAVYYCAARAWNYLTSYYIGGYEYWGQGTQVTVSS", "polyreactivity (PSR sort gate)": "low polyreactivity"},
      {"sequence": "QLQLVESRGGLVQAGGSLRLSCAASGRIFFSNPMGWYIQAPGKDRELVASMTGGDDTNYADSVKGRFTISRDNAKNTVYLQMNSLKPEDTAVYYCAARAIPSYRWVYRFAPQYDYWGQGTQVTVSS", "polyreactivity (PSR sort gate)": "low polyreactivity"},
      {"sequence": "QLQREESGGGLVQAGGSLRLSCAASGRTFTRYAMGWYRQAPVKERELVAAISGGGGSTYYADSVKGRFTISRDNAKITVYLQINSLKPEDTAVYYCNAAARVYSFDYWGQGTQVTVSS", "polyreactivity (PSR sort gate)": "low polyreactivity"},
      {"sequence": "QLQREESGGGLVQAGGSLRLSCAASGSTFEKNAMGWYRQAPAKERELVAALSNGVSTYDADSVKGRFPISRDNAKNSVYLLMNSLKPEDTAVYYCAADLFFGAETVYYAKFDYWGQGTQVTVSS", "polyreactivity (PSR sort gate)": "low polyreactivity"},
      {"sequence": "QQQLVESDVGLDQAGRSHRLSCAASGFIFAPNAMGWYRQAPGKERELVAAITYRGGGTYYADSVKGRFTISRDNAKNTVYLQMNSLKPEDTAVYYCAAGYDSYYRGSYNYWGQGTQVTVSS", "polyreactivity (PSR sort gate)": "high polyreactivity"},
      {"sequence": "QVCLQESGGGLVQACGSLRLSCAASGTISRDIFMGWYRQAPGKEREFVATIAQGGITNYADSVKGRFTISRDNAKNTVYLQMNSVKPGDTAVYYCAARDGNCYWFYYWGQGTQVTVSS", "polyreactivity (PSR sort gate)": "high polyreactivity"},
      {"sequence": "QVEHVESGGGLVQAGGSLRLSCAASGITFAAYAMGWYRQARGTERELVAAISTSGDSTYYADSVKGRFTISRDYAKITVYLQMNSLKPADTAVYYCNDRRYGYGVGRGLYIYDYCGQGTQVTVSS", "polyreactivity (PSR sort gate)": "high polyreactivity"},
      {"sequence": "QVELVESAGGLVQAGGSLRLICAASGLTFDAYAMGWYRQAPGKERELVAAISSGGNTYYADSVKWRFTISRDNAKNTVYLQMNSLKPEDTAVYYCAATFIQVVVNVQLYDYDYWGQGTQVTVSS", "polyreactivity (PSR sort gate)": "low polyreactivity"},
      {"sequence": "QVELVESGGGLVQAGGSLRLSCAASGLTFVSYAMGWYRQAPGKERELVAAISRSGGSTYYADSVKGRFTISLDNAKNTVYLQMNSLKPEDTAVYYCNAYSYVEFWAVYRYDYWGQGTQVTVSS", "polyreactivity (PSR sort gate)": "high polyreactivity"},
      {"sequence": "QVHHVESGGGLVQAGGSLRLSCAASGFTFDLYATVLSRQAPRKERELVAAITWRGGSTYYADSVKGRFAISRDNAKNTVYLQMNSLQPEDTAVYYCAADYVIVDDAWLITVEMDSWGQGTQVTVSS", "polyreactivity (PSR sort gate)": "low polyreactivity"},
      {"sequence": "QVHHVESGGGLVQAGGSLRLSCADSGSIFTYYAMGWYRQAPGKERDLVAAINSGGRTNYADSVKGRFTISRDNAKNTVYLQMNSLKPVDTAVYYCANYGVLQYGYWGQGTQVTVSS", "polyreactivity (PSR sort gate)": "low polyreactivity"},
      {"sequence": "QVHHVESVGGLVQAGGILRLSSAASGRTFDRYAMGWYRQEPGKERELVAAISSGGSTYYADSVKGRFTISRDNAKNTVYLQMNSLKPEDTADYYCNAGKTFDFRDGVGYDHWGQGTQVTVSS", "polyreactivity (PSR sort gate)": "low polyreactivity"},
      {"sequence": "QVHIVESGGGLDQAGGSLRLSCAASGSIFYRNAMGWYRQAPGKEREMVAAISSDGSTNYADSVKGRFTISRDNAKNTVYLQMNSLKQEDTAVYFCAAQWTQILDYWGQGTQVNVSS", "polyreactivity (PSR sort gate)": "low polyreactivity"},
      {"sequence": "QVHLEESGGGIVQAGGSLRLSCAASGSNFGYNAMGWYRQAPGKEREFVARISSRDDRTSYADSVKGRFTISRDNAKNTVYLQMNSLKPEDTAVYYFAAVRFFLTRAWRPLNYWGQGTIVTVSS", "polyreactivity (PSR sort gate)": "high polyreactivity"},
      {"sequence": "QVHLEESGGGLVQAGGSLRLRSAATGRIFKRYAMGWYIQAPGKERDLVAAINWSTGGTYYADSVKGRFTISRDNAKNSVYLHMNSLKPVDTAVYSCAADGDAWFEYLDVEYYYWGQGTQVTVSS", "polyreactivity (PSR sort gate)": "low polyreactivity"},
      {"sequence": "QVHLEESGGRLVQAGGSLRLSCSDSGRIIPRNVMGLYRQAPGKERELVAAISSRGTRTYYADSVKGRFTISRDNAKNTVFLQMNSLKPEDTAVYYCAADGPYDGYDFWGQGTQVTVSS", "polyreactivity (PSR sort gate)": "high polyreactivity"},
      {"sequence": "QVHLGESGGGLVQAGGSLRLSCAASGSIFGYYAMGWYRQAPGKERELVAAITFRDGSTYYADSVKGRFTISRDNAKNTVYLQMNSLKPEDTAVYYCAARVTYSRGYRGGSRTKYDYWGQGTQVTVSS", "polyreactivity (PSR sort gate)": "low polyreactivity"},
      {"sequence": "QVHLLESGGGLDHAGGSLRLSCAASGRIFRYYFMGWYRQAPGKERELVAAISRGGRTYYADSVKGRFTISRDNAKNTVYLQMNSLKPEDTAVYYCDAVITQTDTGYGPSFRVYYWGQGTKVTVSS", "polyreactivity (PSR sort gate)": "high polyreactivity"},
      {"sequence": "QVHLQDSGGGLVKAGGSLRMSCAASGYIFGSGSMGWFRQAPGKERELVATINNGSSTYYADSVKGRFTISRDNAKNNVYLQMNSLKAEATAVYYCAVYLYRLTFFYYWGQGNQVTVSS", "polyreactivity (PSR sort gate)": "high polyreactivity"},
      {"sequence": "QVHLQESGGGLVQAGGSLRLSCEASGSISRYYDMVWYRQAPGKELEFVAGISGGAITYYADSVKGRFTISRDNAKNTVYLQMNSLKPEDTAVYYCAADTGVYQYHSYWGQGTQVTVSS", "polyreactivity (PSR sort gate)": "low polyreactivity"},
      {"sequence": "QVHLVASGGGLVQAGGSLRLSCAASGRSFYEYAMGRYRQEPGKERELVAGITSGGSTNYADSVKGRFTISRDNAKNTVYLQMTSLKPEDTAVYYCADSYWGYEYDYWGQGTQVTVSS", "polyreactivity (PSR sort gate)": "low polyreactivity"},
      {"sequence": "QVHLVDSGGGLVQAGASLRLSCSASGSIFYSYAMGWYRPAPGKEWELVAAIRRGGSTNYADSVKGRFTISRDNAKNTVYLQMNSLKPEDTAVYYCAAGRFTYAAQRYEYWGQGTQVTVSS", "polyreactivity (PSR sort gate)": "high polyreactivity"}
    ]}
  ]
}
